Patent US20250206828A1, “ANTI-ADENOSINE RECEPTOR (A2aR) ANTIBODIES AND THE USE THEREOF” (Adept Therapeutics Inc., priority 2022, published 2025)

B1: Hu3F6-H3/Hu3F6-L5: humanized anti-A2aR IgG1 FES antibody; HCVR SEQ ID NO:60, LCVR SEQ ID NO:80 (antibody, V domains shown)
VH: EVQLVQSGAEVKKPGASVKVSCKTSGFAFTSYWMNWVRQAPGQGLEWIGRIDPSDSEAHYHHKFWGRATLTVDTSSSTVYMELSSLRSEDTAVYYCLRSLYGKGDYWGHGTTVTVSS
VL: DVVMTQTPLSLSVTPGQPASISCRSSQSLVHRNGNTYLEWYLQKPGQSPQLLIYKVSNRFSGVPDRFSGSGSGTDFTLKISRVEAEDVGVYYCYQGSHVPLTFGGGTKVEIK
B2: Hu3F6-H5/Hu3F6-L5: humanized anti-A2aR IgG1 FES antibody; HCVR SEQ ID NO:62, LCVR SEQ ID NO:80 (antibody, V domains shown)
VH: EVQLVQSGAEVKKPGASVKVSCKTSGFAFTSYWMNWVRQAPGQGLEWIGRIDPSDSEAHYAHKFWGRATLTVDKSSSTVYMELSSLRSEDTAVYYCLRSLYGKGDYWGHGTTVTVSS
VL: DVVMTQTPLSLSVTPGQPASISCRSSQSLVHRNGNTYLEWYLQKPGQSPQLLIYKVSNRFSGVPDRFSGSGSGTDFTLKISRVEAEDVGVYYCYQGSHVPLTFGGGTKVEIK

Columns and labels:
[1] = test system: human PBMCs (CD4 and CD8 T cells); experiment: Restoration of CD25 and CD69 activation markers on NECA-suppressed CD4 and CD8 T cells; format: cell-based; conditions: test substance 1 μg/ml
Description: (§1) Two hundred thousand (2×10^5) human peripheral blood mononuclear cells (PBMCs) human PBMC in complete IMDM medium were aliquoted into each well in a 96-well plate and the cells in the 96-well plate were pre-incubated with antibodies or small molecule inhibitors at indicated concentration for 90 minutes, followed by addition of T cell activator anti-CD3/28 dynabeads (Gibco, Cat #11132D) at ratio of 1:4 (Beads: PBMC, v/v) and NECA (DiscoverX, Cat #92-1191, final concentration […]). Cells were cultured in an incubator at 37° C., 5% CO2 for 24 hours. Cells were then collected and stimulated with anti-CD3/28 dynabeads in the presence of GolgiPlug™ Protein Transport Inhibitor (BD Biosciences, Cat #555028) according to manufacturer's manual for 4 hours. Thereafter, cells were incubated with human TruStain FcX block (Biolegend, Cat #422302) and True-Stain monocyte blocker (Biolegend, Cat #426103) for 15 minutes according the manufacturer's manual, and cells were then stained with surface markers PE-anti-CD4 (Biolegend, Cat #300550), PerCP-cy5.5-anti-CD8 (Biolegend, Cat #301032), APC/cy7-anti-CD3 (Biolegend, Cat #300426) and PE/cy7-anti-CD56 (Biolegend, Cat #362509), PE/cy7-anti-CD56 (Biolegend, Cat #362509), BV711-anti-CD25 (Biolegend, Cat #302636) and BV605-anti-CD69 (Biolegend, Cat #31938 After wash with FACS buffer, cells were stained with BV421-anti-IFN-γ (BD Bioscience, Cat #562988) and APC anti-IL-2 (BD Bioscience, cat #551383) using intracellular cytokine staining kit (BD Biosciences, cat #555028) following manufacturer's instruction. Stained samples were analyzed on FACSAria III machine. Data were analyzed using Flowjo software.

[2] = target: T1, human A2aR-expressing CHO cells (Homo sapiens, UniProt P29274); experiment: pH-sensitive dye (Zenon pHrodo iFL RED) based internalization assay; format: cell-based; conditions: 24 hours
T1 construct: expressed in transfected cells; host or cells: CHO
Text: The Invitrogen™ Zenon™ pHrodo™ iFL RED human IgG Labeling Reagents (Cat. Z25612) Z25612) is low-pH sensitive dye and was used to determine the internalizing properties of the exemplary anti-A2aR antibodies following manufacture's instruction. The internalization of antibodies coupled with the Zenon™ pHrodo™ iFL RED human IgG Labeling reagents increase the fluorescence signal at low pH intracellular compartment in a cell, providing a method for visualizing internalization under fluorescent microscopy.
Twenty-five microliters (25 μL) of 4× working solution of Zenon™ pHrodo™ iFL IgG Labeling Reagent were also prepared in freestyle CHO expression medium and then added to each well of a 96-well plate containing antibodies. The solutions in the 96-well plate were mixed and incubated for 5 minutes at room temperature to allow the labeling complexes to form. Afterwards, fifty microliters (50 μl) of 2×10^6/ml human A2aR-expressing CHO cells were added to each well containing labeled antibodies. Cells were then incubated with the labeling complex for 24 hours under standard cell culture conditions. Cells were analyzed under immunofluorescent microscope (Invitrogen EVOS cell imaging system M5000) to visualize the internalization of antibodies by cells. Internalization of antibody was imaged using EVOS imaging systems (Invitrogen).

[3] = test system: human PBMCs (CD4 T, CD8 T, NK cells); experiment: Restoration of IFN-γ and IL-2 production of NECA-suppressed T cells and NK cells (intracellular cytokine staining); format: cell-based; conditions: for % of cells IFNγ+, CD4 T cells / % of cells IFNγ+, CD8 T cells / % of cells IFNγ+, NK cells / % of cells IL-2+, CD4 T cells / % of cells IL-2+, CD8 T cells: NECA, test substance 1 μg/ml; for restored production of IFN-γ and IL-2 by NECA-suppressed CD8 T cell: compared with AB928, CPI-444 and AZD4635; for restored production of IFN-γ and IL-2 by NECA-suppressed NK cells: compared with the tested small molecule inhibitors
Description: as §1

[4] = test system: cynomolgus A2aR on the cell surface of cynomolgus PBMCs; experiment: Binding of anti-A2aR antibodies to cynomolgus PBMC subsets (CD4 T, CD8 T, NK, NKT cells; FACS); conditions: for binding (cross-reactivity) to cynomolgus T cells (CD4+, CD8+), NK cells and NKT cells: cynomolgus PBMCs, FACS
Description: Human and cynomolgus PBMCs were purchased from Cytologics LLC (San Diego, CA) and iQ Biosciences (Berkeley, CA), respectively. 10^6 human and/or cynomolgus PBMCs in 100 μl FACS buffer (1×DPBS, 2% FBS) were incubated with anti-A2aR antibodies at 4° C. for 30 minutes. After wash, samples were stained with PE-conjugated goat-anti-human Fc antibody (1:400, Jackson ImmunoResearch Labs, Cat. 109-116-098) and other surface markers using cynomolgus cross-reactive APC/cy7-anti-CD3 (BD Bioscience, Cat. 557757), BV421-anti-CD4 (Biolegend, Cat. 317433), BV650-anti-CD8 (Biolegend, Cat. 301042) and BV711-anti-CD56 (BD Bioscience, Cat. 742661) for 30 minutes, and Zombie Green fixable Viability dye (Biolegend, Cat. 423111) were used according to manufacturer's instruction to define live immune cell subsets. After wash with FACS buffer, cells were analyzed on FACSAria (BD). Data was analyzed using Flowjo (Becton Dickinson).

[5] = target: human A2aR-expressing HEK293 cells (Homo sapiens, UniProt P29274); experiment: Flow cytometry based internalization assay; format: cell-based; conditions: 1, 0.5 and 0.25 μg/ml, 1, 2 and 4 hours at 37° C.
Description: 2×10^5/well freshly cultured human A2aR-expressing HEK293 cells (BPS Bioscience) were incubated with antibodies to be tested at indicated concentration (1, 0.5 and 0.25 μg/ml) on ice for 45 minutes. Parental 3F6 were used as positive control. After wash with FACS buffer, samples were split into 4 sets. One set of samples were maintained on ice. The other three sets of samples were left in 37° C., 5% CO2 incubator for further incubation for 1, 2 and 4 hours. All four sets of samples were followed by staining with PE-conjugated goat-anti-human Fc antibody (1:400, Jackson Immuno Research, Cat. 109-116-098) for 30 minutes, and then washed with cold FACS buffer, cells were then stained with 1:100 diluted 7−AAD (Biolegend) and then fixed with 2% of paraformaldehyde (diluted from 10% paraformaldehyde (MilliporeSigma, Cat. R04586)). All samples were analyzed on Guava 11HT or 5HT (Luminex). The mean fluorescence intensity (MFI) was obtained and data was analyzed using Flowjo software. Internalization rate was calculated as: […]

cynomolgus A2aR on the cell surface of cynomolgus PBMCs, sequence (as listed by the source): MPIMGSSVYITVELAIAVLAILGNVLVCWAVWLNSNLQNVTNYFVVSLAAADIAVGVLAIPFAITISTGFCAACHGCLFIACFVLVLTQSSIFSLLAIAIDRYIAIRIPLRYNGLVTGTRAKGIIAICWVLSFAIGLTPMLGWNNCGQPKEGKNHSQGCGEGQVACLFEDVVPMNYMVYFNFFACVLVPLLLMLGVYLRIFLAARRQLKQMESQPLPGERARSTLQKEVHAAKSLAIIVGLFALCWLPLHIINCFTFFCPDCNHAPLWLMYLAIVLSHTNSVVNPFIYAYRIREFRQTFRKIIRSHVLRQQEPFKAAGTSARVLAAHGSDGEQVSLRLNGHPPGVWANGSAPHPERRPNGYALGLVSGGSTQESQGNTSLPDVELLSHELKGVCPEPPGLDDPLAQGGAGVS
T1 sequence (P29274 whole entry): as the sequence (as listed by the source) above, with N263S, T371A, S379G, G407D counted along it
human A2aR-expressing HEK293 cells, sequence (P29274 whole entry): as the sequence (as listed by the source) above, with N263S, T371A, S379G, G407D counted along it

Row | Molecule | % of cells CD25+, CD4 T cells [1] [%] | % of cells CD25+, CD8 T cells [1] [%] | % of cells CD69+, CD4 T cells [1] [%] | % of cells CD69+, CD8 T cells [1] [%] | induction of internalization (pHrodo fluorescence microscopy, FIG. 3) [2] | % of cells IFNγ+, CD4 T cells [3] [%] | % of cells IFNγ+, CD8 T cells [3] [%] | % of cells IFNγ+, NK cells [3] [%] | % of cells IL-2+, CD4 T cells [3] [%] | % of cells IL-2+, CD8 T cells [3] [%] | restored production of IFN-γ and IL-2 by NECA-suppressed CD8 T cell [3] | restored production of IFN-γ and IL-2 by NECA-suppressed NK cells [3] | % of A2aR+ CD4+ T cells ([4]; Cynomolgus 1 PBMC) [%] | % of A2aR+ CD8+ T cells ([4]; Cynomolgus 1 PBMC) [%] | % of A2aR+ NK cells ([4]; Cynomolgus 1 PBMC) [%] | % of A2aR+ NKT cells ([4]; Cynomolgus 1 PBMC) [%] | % of A2aR+ CD4+ T cells ([4]; Cynomolgus 2 PBMC) [%] | % of A2aR+ CD8+ T cells ([4]; Cynomolgus 2 PBMC) [%] | % of A2aR+ NK cells ([4]; Cynomolgus 2 PBMC) [%] | % of A2aR+ NKT cells ([4]; Cynomolgus 2 PBMC) [%] | also measured
1 | B1 | 61.5 | 36 | 57.9 | 54.5 | internalization can be induced | 4.35 | 14.1 | 17.8 | 13.4 | 3.29 | restored production of IFN-γ and IL-2 by NECA-suppressed CD8 T cell, with higher potency | restored production of IFN-γ and IL-2 by NECA-suppressed NK cells, with a potency higher | 1.65 | 0.05 | 6.52 | 1.06 | 1.20 | 0.11 | 2.07 | 0.45 | binding (cross-reactivity) to cynomolgus T cells (CD4+, CD8+), NK cells and NKT cells [4]: bound to various human and cynomolgus CD4+ and CD8+ T cells; internalization upon binding to cell surface A2aR (percentage of internalization, FIG. 2) [5]: induce internalization upon binding to cell surface A2aR
2 | B2 | 62.5 | 35.8 | 58.1 | 56.1 | internalization can be induced | 4.29 | 14.8 | 16.6 | 13.2 | 2.98 | restored production of IFN-γ and IL-2 by NECA-suppressed CD8 T cell, with higher potency | restored production of IFN-γ and IL-2 by NECA-suppressed NK cells, with a potency higher | 4.76 | 0.15 | 5.71 | 4.14 | 10.6 | 0.41 | 2.92 | 4.28 | binding (cross-reactivity) to cynomolgus T cells (CD4+, CD8+), NK cells and NKT cells [4]: bound to various human and cynomolgus CD4+ and CD8+ T cells; internalization upon binding to cell surface A2aR (percentage of internalization, FIG. 2) [5]: induce internalization upon binding to cell surface A2aR
